We go through one molecule from publication PMC3962550.

For this assay, the target named is epidermal growth factor (EGF) receptor expressed in 32D mouse myeloid cells (32D/EGFR) (UniProt P00533).

B1: amphiregulin (ligand)
chain: SVRVEQVVKPPQNKTESENTSDKPKRKKKGGKNGKNRRNRKKKNPCNAEFQNFCIHGECKYIEHLEAVTCKCQQEYFGERCGEKSMK
For the molecule B1, the EC50 of AR for IL3-independent proliferation of 32D/EGFR cells, without EGF turned out to be 8.3 nM.
